Like-named read-outs stand apart in the source and are kept apart here.
Columns and labels:
Assay in all cases: ITC
[1] = target: human U2A′ protein, truncated form that included the first 180 amino acids (LRR domain) (human) (UniProt P09661)
[2] = target: human U2A′ protein, truncated form that included the first 180 amino acids (LRR domain) (human) (UniProt P09661); remark: listed apart in the source
[3] = target: human U2A′ protein, truncated form that included the first 180 amino acids (LRR domain) (human) (UniProt P09661); remark: listed apart in the source

Chain of full-length human U1A protein (P09012 whole entry): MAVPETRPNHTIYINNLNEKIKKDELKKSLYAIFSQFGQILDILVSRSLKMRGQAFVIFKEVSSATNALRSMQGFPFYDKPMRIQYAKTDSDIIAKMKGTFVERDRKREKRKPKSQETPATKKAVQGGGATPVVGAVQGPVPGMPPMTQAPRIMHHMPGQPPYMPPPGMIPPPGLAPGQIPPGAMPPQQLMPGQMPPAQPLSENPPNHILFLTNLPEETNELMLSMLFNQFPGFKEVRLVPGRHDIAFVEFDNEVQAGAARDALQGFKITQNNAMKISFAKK
Chain of human U2A′ protein, truncated form that included the first 180 amino acids (LRR domain) (human) (P09661 1-180): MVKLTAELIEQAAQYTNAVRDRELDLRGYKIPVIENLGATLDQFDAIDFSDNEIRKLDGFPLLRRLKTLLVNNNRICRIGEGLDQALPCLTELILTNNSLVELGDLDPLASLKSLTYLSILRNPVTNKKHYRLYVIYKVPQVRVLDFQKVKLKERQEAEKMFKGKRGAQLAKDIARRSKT

- dH [1]: 2.8 kcal/mol
- dH [2]: 2.9 kcal/mol
- dH [3]: 2 kcal/mol
Substance: full-length human U1A protein (from UniProt P09012 1-282) (natural protein)

Reference: paper PMC4067145
